Numbering of substitutions follows the chain as printed.
How the values were obtained:
AcrIF24 R221W = experiment: SEC-MALS; settings: parent: 55.76
[1] = target: P. aeruginosa type I-F Cascade complex (Cas5f1, Cas6f, six copies of Cas7f1, Cas8f1 and a 60 nt crRNA) (UniProt Q02MM2); experiment: SEC followed by SDS-PAGE, band intensity quantified; settings: parent: est. 100; read off a plot
[2] = target: AcrIF24 Y128K/Y217W double mutant; experiment: SEC-MALS; settings: parent: 55.76
AcrIF24 T129W = experiment: SEC-MALS; settings: parent: 55.76
[3] = target: the molecule itself; experiment: SEC-MALS; Superdex 200 Increase 10/300 GL, SEC buffer (20 mM Tris-HCl pH 8.0, 150 mM NaCl), 0.4 ml/min, 20°C; DAWN-TREOS detector
AcrIF24 wild type [4] = target: T1, AcrIF24 wild type (Pseudomonas aeruginosa prophage, UniProt A0AA82WNY5 1-228); experiment: EMSA; concentration-dependent; EMSA-P: 10 mM HEPES pH 7.5, 1 mM MgCl2, 20 mM KCl, 1 mM TCEP, 5% glycerol, 30 min on ice; 10% native 0.5x TBE gel, SYBR Gold; Cascade EMSA buffer not in material; settings: protein: recombinant; chain copies: 2; label: none (SYBR Gold stain); blunt
T1 sequence: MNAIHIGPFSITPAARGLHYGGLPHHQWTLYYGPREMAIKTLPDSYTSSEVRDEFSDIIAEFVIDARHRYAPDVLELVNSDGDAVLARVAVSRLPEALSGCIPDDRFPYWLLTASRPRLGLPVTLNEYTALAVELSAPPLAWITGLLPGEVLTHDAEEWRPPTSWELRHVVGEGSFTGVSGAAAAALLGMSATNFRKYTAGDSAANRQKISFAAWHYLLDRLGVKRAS

AcrIF24 wild type [5] = target: T1, AcrIF24 wild type; experiment: EMSA; EMSA-P: 10 mM HEPES pH 7.5, 1 mM MgCl2, 20 mM KCl, 1 mM TCEP, 5% glycerol, 30 min on ice; 10% native 0.5x TBE gel, SYBR Gold; Cascade EMSA buffer not in material; settings: protein: recombinant, chain copies: 2, label: none (SYBR Gold stain)

AcrIF24 (wildtype, full length, residues 1-228) R221W
other: MW (kDa) by SEC-MALS (AcrIF24 R221W): 52.4 kDa

AcrIF24 (wildtype, full length, residues 1-228) G22Y
percent of parent [1]: 98%

AcrIF24 (wildtype, full length, residues 1-228) G189K
percent of parent [1]: 88%

AcrIF24 (wildtype, full length, residues 1-228) D105K
percent of parent [1]: 98%

AcrIF24 (wildtype, full length, residues 1-228) W110K
percent of parent [1]: 11%

AcrIF24 (wildtype, full length, residues 1-228) Y128K; Y217W
other: MW (kDa) by SEC-MALS [2]: 39.6 kDa

AcrIF24 (wildtype, full length, residues 1-228) T129W
other: MW (kDa) by SEC-MALS (AcrIF24 T129W): 53.9 kDa

B1: AcrIF24 (wildtype, full length, residues 1-228) (natural protein)
chain: T1 sequence
stoichiometry N [3]: 2

B2: IR-L (dsDNA)
DNA 1: CAGAATATCATTGCATAGCTCGATTCGAGCTAATATAGTAATACCAACAGCGCGGCACACCGCCAGCACTGAACCT
DNA 2: AGGTTCAGTGCTGGCGGTGTGCCGCGCTGTTGGTATTACTATATTAGCTCGAATCGAGCTATGCAATGATATTCTG
binding result (AcrIF24 wild type [4]): binds

B3: IR-S (dsDNA)
DNA 1: TAGCTCGATTCGAGCTA
DNA 2: TAGCTCGAATCGAGCTA
binding result (AcrIF24 wild type [5]; blunt): binds

B4: IR-L half-site mutant (dsDNA)
DNA 1: B2 DNA 1 with T16G, A17C, G18A, C19T, T20G, C21A, G22T, A23C
DNA 2: B2 DNA 2 with T54G, C55A, G56T, A57C, G58A, C59T, T60G, A61C
binding result (AcrIF24 wild type [5]): no binding

B5: IR-S half-site mutant (dsDNA)
DNA 1: GCATGATCTTCGAGCTA
DNA 2: TAGCTCGAAGATCATGC
binding result (AcrIF24 wild type [5]): no binding
